To fix the notation:
B1: BD-368 (antibody, V domains shown)
VH: EVQLLESGGGVVQPGGSLRLSCAASGFAFTTYAMNWVRQAPGRGLEWVSAISDGGGSAYYADSVKGRFTISRDNSKNTLYLQMNSLRAEDTAVYYCAKTRGRGLYDYVWGSKDYWGQGTLVTVSS
VL: not shown
B2: REGN10933 (antibody, V domains shown)
VH: QVQLVESGGGLVKPGGSLRLSCAASGFTFSDYYMSWIRQAPGKGLEWVSYITYSGSTIYYADSVKGRFTISRDNAKSSLYLQMNSLRAEDTAVYYCARDRGTTMVPFDYWGQGTLVTVSS
VL: DIQMTQSPSSLSASVGDRVTITCQASQDITNYLNWYQQKPGKAPKLLIYAASNLETGVPSRFSGSGSGTDFTFTISGLQPEDIATYYCQQYDNLPLTFGGGTKVEIK
B3: CB6 (antibody, V domains shown)
VH: EVQLVESGGGLVQPGGSLRLSCAASGFTVSSNYMSWVRQAPGKGLEWVSVIYSGGSTFYADSVKGRFTISRDNSMNTLFLQMNSLRAEDTAVYYCARVLPMYGDYLDYWGQGTLVTVSS
VL: not shown
B4: REGN10987 (antibody, V domains shown)
VH: QVQLVESGGGVVQPGRSLRLSCAASGFTFSNYAMYWVRQAPGKGLEWVAVISYDGSNKYYADSVKGRFTISRDNSKNTLYLQMNSLRTEDTAVYYCASGSDYGDYLLVYWGQGTLVTVSS
VL: QSALTQPASVSGSPGQSITISCTGTSSDVGGYNYVSWYQQHPGKAPKLMIYDVSKRPSGVSNRFSGSKSGNTASLTISGLQSEDEADYYCNSLTSISTWVFGGGTKLTVL

In this assay the target is SARS-CoV-2 WT RBD (SARS-CoV-2, UniProt P0DTC2 319-541). The assay is described as follows: SPR. For orientation: Surface plasmon resonance follows binding to a sensor surface in real time, without labels.
The Kd is the concentration at which binding is half-saturated. Read a low Kd as a tighter complex. B1 displayed a Kd of 3.47 nM.

B2: the Kd was found to be 1.6 nM.

In turn, B3 had a Kd of 30 nM.

In the case of B4, the affinity, expressed as Kd, was 2.22 nM.

These data come from article PMC9472616 (2022).
